Laboratory results published in patent US20090252754A1, “Vaccines containing the hiv tat protein as an adjuvant for the enhancement of cytotoxic t-cell responses” (priority 2003, published 2009).
Read-outs that look alike come from different tables or passages of the source.

Tests used:
LMP2 = LMP2 expression in splenocytes of mice treated i.m. with Tat (Western blot); format: in vivo; conditions: Balb/c mice, 1 μg i.m., 3 consecutive treatments
Source text: Equal amounts of proteins were loaded on a 12% SDS-PAGE gel and electroblotted onto Protran nitrocellulose membranes (Schleicher & Schuell, Keene, Hampshire, USA). The blots were probed with antibodies specific for α2, LMP2, LMP7, MECL1, and PA28α subunits (Affinity, Exeter, UK) and developed by enhanced chemiluminescence (ECL, Amersham Pharmacia Biotech, Uppsala, SW).
Animal use was according to national and institutional guidelines. Seven-to-eight week old female Balb/c mice (Nossan, Milan, Italy) were injected with native monomeric biologically active Tat protein (1 μg) resuspended in degassed sterile PBS. Control mice were injected with oxidised Tat (1 μg) or with PBS alone. Samples (100 μl) were given by intramuscular (i.m.) injections in the quadriceps muscles of the posterior legs. Each experimental group consisted of three mice, and the experiment was repeated twice. Mice were boosted at days 11 and 20 after the first injection. Seven days after the last injection, animals were anaesthetised intraperitoneally (i.p.) with 100 μl of isotonic solution containing 1 mg of Inoketan (Virbac, Milan, Italy), and 200 μg Rompun (Bayer, Milan, Italy) and sacrificed to collect spleens. Mononuclear cells from individual spleens were purified using cells strainers, resuspended in PBS containing 20 mM EDTA, and treated with a red blood cells lysis buffer for 4 minutes at room temperature. […]

HIV-1 LTR = conditions: in contrast to wild-type Tat, cited from earlier work
[1] = tested on: proteasome subunits (α2, LMP2, LMP7, MECL1) in Jurkat cells; experiment: Western blot of proteasome subunits in Jurkat cells expressing or treated with Tat, Tat mutants or Tat peptides; format: cell-based, human; conditions: Jurkat cells expressing mutant
Experimental: Jurkat T cells expressing Tat or mutated Tat (referred to as Tat22, wherein a Cys at position 22 is mutated) have previously been described (1). Cells were cultured in a medium supplemented with 800 μg/ml neomycin (Sigma, St. Louise, […].).
Cells were lysed with glass beads as previously described (4). Supernatants were ultracentrifuged for 1 h at 100,000 g and loaded into an affinity column containing a matrix derivatised with the MCP21 mAb specific for the α2 subunit of the proteasome (Affinity, Exeter, UK). Proteasomes were eluted with 25 mM Tris-HCl pH 7.5 containing 2 M NaCl, and 0.5 ml fractions were collected. Homogeneity of the eluted material was confirmed by analysis of an aliquot by SDS 12% PAGE and Coomassie blue staining of the gel. Fractions containing proteasomes were combined and dialysed against 25 mM Tris-HCl pH 7.5. Protein concentration was determined using the BCA method (Pierce Chemical, Rockford, Ill.).
Equal amounts of proteins, or equal amounts of purified proteasomes, were loaded on a 12% SDS-PAGE and electro-blotted onto Protran nitrocellulose membranes (Schleicher & Schuell, Keene, Hampshire, USA). Blots were probed with Abs specific for α2, LMP2 LMP7, MECL1, and PA28α subunits (Affinity), and developed by enhanced chemi-luminescence (ECL, Amersham Pharmacia Biotech, Uppsala, SW).

Row | Molecule | LMP2 expression in splenocytes (LMP2) | reactivation of latent infection (HIV-1 LTR) | transactivation of the HIV-1 LTR (HIV-1 LTR) | reactivation of latent infection (HIV-1 LTR; listed as Tatcys22) | subunit composition of proteasomes [1]
1 | oxidised Tat: oxidised form of the HIV-1 Tat protein, used as control (protein, UniProt P04608 1-86, looked up, oxidised, oxidised form of the HIV-1 Tat protein, used as control) Protein Tat: MEPVDPRLEPWKHPGSQPKTACTNCYCKKCCFHCQVCFITKALGISYGRKKRRQRRRAHQNSQTHQASLSKQPTSQPRGDPTGPKE | no effect | – | – | – | –
2 | Tat22: mutated HIV-1 Tat carrying glycine instead of cysteine 22 (SEQ ID NO 286) (protein) MEPVDPRLEPWKHPGSQPKTAGTNCYCKKCCFHCQVCFITKALGISYGRKKRRQRRRPPQGSQTHQVSLSKQPTSQSRGDPTGPKE | – | do not induce | no effect | does not induce | modifies the subunit composition of proteasomes
